Experimental data: patent publication US20060234906A1, “Structure of a complex of retinoblastoma protein bound to e2f, and uses thereof” (priority 2002, published 2006)

Columns and labels:
RbAB = molecular target: T1, RbAB (Homo sapiens, UniProt P06400); experiment: Isothermal titration calorimetry of E2F constructs binding to RbAB; details: ITC, binding to pRbAB
T1 construct: residues 372 to 589 of the A domain and 636 to 787 of the B domain; GST (with Prescission protease site) (N, cleaved yes); engineered thrombin site (LVPRGS) at the A-domain end of the A-B linker (C, cleaved yes); engineered thrombin site (LVPRGS) at the B-domain end of the A-B linker (N, cleaved yes); made in house; host or cells: E. coli
T1 sequence (P06400 372-589): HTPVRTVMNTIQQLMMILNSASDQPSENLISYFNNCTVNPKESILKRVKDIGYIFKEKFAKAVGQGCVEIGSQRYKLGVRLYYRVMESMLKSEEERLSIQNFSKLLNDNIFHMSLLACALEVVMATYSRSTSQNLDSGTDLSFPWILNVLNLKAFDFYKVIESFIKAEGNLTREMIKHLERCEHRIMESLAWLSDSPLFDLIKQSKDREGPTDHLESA
T1 sequence (P06400 636-787): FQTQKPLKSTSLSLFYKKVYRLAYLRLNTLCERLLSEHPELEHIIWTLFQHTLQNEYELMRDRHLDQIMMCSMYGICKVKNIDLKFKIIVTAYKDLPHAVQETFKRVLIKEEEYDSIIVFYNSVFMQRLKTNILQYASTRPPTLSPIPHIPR
Method: The panel represents the experiment where E2F(243-437) is titrated into RbAB.
(B) Summary of dissociation constants obtained by ITC measurements. The quoted errors are those produced by fitting the data to a two-state model. For the interaction of E2F(243-437) to RbAB and RbABC the affinities are too high to measure reliably and we have therefore quoted the upper limits of the dissociation constants.
Binding of the various E2F constructs to RbAB and RbABC was measured by isothermal titration calorimetry using a MicroCal Omega VP-ITC machine (MicroCal Inc., Northampton, USA). The E2F constructs at a concentration between 100-150 μM were titrated into 12-15 μM Rb at a temperature of 22° C. Proteins were dialysed against 50 mM Tris pH 7.6, 100 mM NaCl and 1 mM TCEP. After subtraction of the dilution heats, calorimetric data was analysed using the evaluation software MicroCal Origin v5.0 (MicroCal Software Inc.). For all of the titrations, the stoichiometry of ligand binding to Rb was very close to 1.0. For E2F(243-437) binding to Rb, the binding affinity and the heat change associated with binding were such that we could only establish that binding was tighter than 10 nM.

RbABC = molecular target: T2, RbABC (Homo sapiens, UniProt P06400); experiment: RbABC
T2 construct: His6-RbABC (RESIDUES 380-929); made in house; host or cells: E. coli
T2 sequence (P06400 whole entry, looked up): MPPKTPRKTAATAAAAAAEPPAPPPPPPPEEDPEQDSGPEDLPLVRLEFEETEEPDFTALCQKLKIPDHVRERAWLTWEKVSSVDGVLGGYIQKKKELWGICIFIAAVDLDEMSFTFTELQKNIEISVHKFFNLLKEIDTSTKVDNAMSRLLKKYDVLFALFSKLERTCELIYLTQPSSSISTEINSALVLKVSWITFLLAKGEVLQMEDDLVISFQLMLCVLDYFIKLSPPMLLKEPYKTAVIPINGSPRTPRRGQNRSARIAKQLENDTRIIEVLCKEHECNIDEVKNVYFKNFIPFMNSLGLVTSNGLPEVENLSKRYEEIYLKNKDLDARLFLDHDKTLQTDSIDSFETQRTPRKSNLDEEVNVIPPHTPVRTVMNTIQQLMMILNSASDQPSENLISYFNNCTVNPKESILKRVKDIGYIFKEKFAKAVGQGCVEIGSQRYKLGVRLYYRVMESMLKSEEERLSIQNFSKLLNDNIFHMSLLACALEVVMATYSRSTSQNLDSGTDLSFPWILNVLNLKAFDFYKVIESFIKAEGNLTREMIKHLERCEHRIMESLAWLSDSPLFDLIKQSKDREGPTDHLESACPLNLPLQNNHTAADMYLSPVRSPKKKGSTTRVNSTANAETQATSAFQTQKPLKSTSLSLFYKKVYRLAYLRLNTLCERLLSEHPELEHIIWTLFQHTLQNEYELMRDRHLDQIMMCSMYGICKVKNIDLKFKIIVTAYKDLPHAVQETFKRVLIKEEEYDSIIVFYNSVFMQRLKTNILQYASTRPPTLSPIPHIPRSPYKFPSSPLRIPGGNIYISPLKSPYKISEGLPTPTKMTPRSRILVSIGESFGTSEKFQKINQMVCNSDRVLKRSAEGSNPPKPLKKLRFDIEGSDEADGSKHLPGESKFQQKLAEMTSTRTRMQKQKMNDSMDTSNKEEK
Text: Table printed on a drawing sheet, FIG. 2B
The patent's description of the figure: FIG. 2.
First copying reader's note: Binding constants of E2F fragments to the Rb constructs RbAB and RbABC; the error is printed in the same cell as the value.
Where the first naming reader finds the target: head: RbABC

- binds stronger than either of the two shorter E2F fragments (RbAB): at least 16 fold
- Kd (RbABC): < 10 nM
B1: E2F(243-437): Recombinant human E2F1(243-437) expressed in E. coli (protein, UniProt Q01094 243-437, looked up, fragment)
chain: LAYVTCQDLRSIADPAEQMVMVIKAPPETQLQAVDSSENFQISLKSKQGPIDVFLCPEETVGGISPGKTPSQEVTSEEENRATDSATIVSPPPSSPPSSLTTDPSQSLLSLEQEPLLSRMGSLRAPVDEDRLSPLVAADSLLEHVREDFSGLLPEEFISLSPPHEALDYHFGLEEGEGIRDLFDCDFGDLTPLDF
